Source: paper PMC4633474, “Kinetic properties and stability of glucose dehydrogenase from Bacillus amyloliquefaciens SB5 and its potential for cofactor regeneration” (AMB Express, 2015)

Tests used:
Assay in all cases: purified protein
Format in all cases: biochemical, Bacillus amyloliquefaciens
purified protein [1] = substrate: NC(=O)c1ccc[n+]([C@@H]2O[C@H](COP(=O)(O)OP(=O)(O)OC[C@H]3O[C@@H](n4cnc5c(N)ncnc54)[C@H](O)[C@@H]3O)[C@@H](O)[C@H]2O)c1; settings: co-substrate glucose, apparent, pH and temperature of kinetics not stated (default assay Tris-Cl pH 8 or CPB buffer, 37 °C), varied: cofactor
purified protein [2] = substrate: OC[C@H]1O[C@@H](O)[C@H](O)[C@@H](O)[C@@H]1O; settings: with 0.5 mM NADP+, apparent, pH and temperature of kinetics not stated (default assay Tris-Cl pH 8 or CPB buffer, 37 °C)
purified protein [3] = substrate: NC(=O)c1ccc[n+]([C@@H]2O[C@H](COP(=O)(O)OP(=O)(O)OC[C@H]3O[C@@H](n4cnc5c(N)ncnc54)[C@H](OP(=O)(O)O)[C@@H]3O)[C@@H](O)[C@H]2O)c1; settings: co-substrate glucose, apparent, pH and temperature of kinetics not stated (default assay Tris-Cl pH 8 or CPB buffer, 37 °C), varied: cofactor

B1: GluDH-BA (Bacillus amyloliquefaciens) (protein)
chain: MYTDLKGKVVAITGASSGLGKAMAIRFGQEQAKVVVNYYSNEKDAQTVKEEIQKAGGEAVIIQGDVTKEEDVKNIVQTAVKEFGTLDVMINNAGMENPVQSHEMPLKDWNKVINTNLTGAFLGSREAIKYYVENDIQGNVINMSSVHEMIPWPLFVHYAASKGGIKLMTETLALEYAPKRIRVNNIGPGAINTPINAEKFADPVQRKDVESMIPMGYIGEPEEIAAVAVWLASKESSYVTGITLFADGGMTKYPSFQAGRG
notes: full length (261 aa, 28 kDa), 6xHis inserted right after start Met, pET23b, E. coli BL21(DE3), Ni-purified; tag cleavage not mentioned
With B1 the Km (purified protein [1]) was 250 ± 30 µM, the Km (purified protein [2]) was 5500 ± 280 µM and the kcat (purified protein [2]) was 70 ± 0.3 s⁻¹. The Km (purified protein [3]) was 50 ± 4 µM and the kcat (purified protein [3]) was 70 ± 0.3 s⁻¹.
